{
  "source": "patent US20250129146A1",
  "about": "“COMBINED CANCER THERAPY WITH AN EPITHELIAL CELL ADHESION MOLECULE (EPCAM) INHIBITOR AND A WNT INHIBITOR” (ACADEMIA SINICA, priority 2021, published 2025)",
  "molecules": {"B1": {"name": "EpAb2-6: anti-EpCAM (EpEX) neutralizing monoclonal antibody produced in mice by hybridoma; VH SEQ ID NO: 15, VL SEQ ID NO: 16 (antibody, V domains shown)", "VH": "VKLQESGPELKKPGETVKISCKASGYTFTDYSMHWVKQAPGKGLKWMGWINTETGEPTYADDFKGRFAFSLETSASTAYLQINNLKNEDTATYFCARTAVYWGQGTTVTVSS", "VL": "DIQMTQSPSSLSASLGERVSLTCRASQEISVSLSWLQQEPDGTIKRLIYATSTLDSGVPKRFSGSRSGSDYSLTISSLESEDFVDYYCLQYASYPWTFGGGTKLEIK"}},
  "key": {"[1]": {"tested_on": "HCT116 cells", "assay": "Orthotopic animal model of human CRC (HCT116 cells with luciferase in cecum wall)", "assay_type": "in vivo, NOD/SCID mice", "details": "orthotopic model", "method": "(§1) All animal experiments were approved and performed according to the regulations from the IACUC at Academia Sinica. HCT116 cells (1×10^6) were injected via tail vein for the metastatic model. Otherwise, 2×10^5 HCT116 cells with luciferase were surgically transplanted into the cecum wall for the orthotopic model. Male NOD/SCID mice, approximately 6 to 8 weeks old, were used for animal experiments (n=5 and n=6 for each treatment group in metastatic and orthotopic models respectively). At 72-h post-injection/transplantation, mice were randomly distributed into four different treatment groups. For the treatments, animals were injected with 20 mg/kg IgG or EpAb2-6 via tail vein twice a week for four weeks, or fed by oral gavage with either vehicle [0.5% methylcellulose (Sigma-Aldrich) and 0.5% Tween80 (Sigma-Aldrich)] or 5 mg/kg LGK974 (MedChemExpress) formulated with the vehicle on alternating days for four weeks, or animals were treated with the combination of both inhibitor and antibody. For the metastatic model, survival was the main endpoint. For the orthotopic model, tumor progression was monitor using bioluminescence imaging. To image the tumors, intraperitoneal injection of D-Luciferin (GOLD BIO) was performed, and images were taken 10 min post-injection."}, "[2]": {"tested_on": "HCT116 cells", "assay": "Metastatic animal model of human CRC (HCT116 cells via tail vein)", "assay_type": "in vivo, NOD/SCID mice", "method": "as §1"}, "[3]": {"biological_target": "T1, EpCAM (Homo sapiens, UniProt P16422)", "T1 construct": "HEK293T cells were transfected with full length or EGF like-domain deletion mutant EpCAM-V5; V5; expressed in transfected cells; host or cells: HEK293T", "T1 sequence (P16422 24-314)": "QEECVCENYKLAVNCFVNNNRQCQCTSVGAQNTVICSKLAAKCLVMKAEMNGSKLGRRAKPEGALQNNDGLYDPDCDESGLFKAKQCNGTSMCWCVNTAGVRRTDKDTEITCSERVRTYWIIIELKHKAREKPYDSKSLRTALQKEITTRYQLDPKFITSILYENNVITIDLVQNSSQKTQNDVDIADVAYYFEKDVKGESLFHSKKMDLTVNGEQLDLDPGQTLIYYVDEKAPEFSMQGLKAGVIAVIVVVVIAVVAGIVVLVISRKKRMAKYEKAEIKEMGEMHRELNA", "assay": "Antibody binding to EpCAM wild-type, deletion and point mutants in HEK293T cells (immunofluorescence, flow cytometry, cellular ELISA)", "details": "EGF-like domain deletion and point mutants", "method": "FIGS. 18A to 18G. […] HEK293T cells were transfected with full length or EGF like-domain deletion mutant EpCAM-V5. Antibody binding was assessed by (FIG. 8A) Western blotting, (FIG. 8B) flow cytometry, and (FIG. 8C) immunofluorescence. (FIG. 8D) EpCAM mutants were constructed with amino acid substitutions in the EGF-I (Y32A) and EGF-II (L94A, Y95A, or D96A) domains. EpCAM wild-type and mutant proteins were expressed in HEK293T cells. Binding of MT201, EpAb2-6 and EpAb23-1 to EpCAM wild-type and mutants were evaluated by (FIG. 8E) immunofluorescence, (FIG. 8F) flow cytometry, and (FIG. 8G) cellular ELISA. All data are presented as mean±SEM. *, p<0.05; **, p<0.01.\nHere, we wanted to determine whether the antibody binds to EpCAM at both EGF-like domains of EpEX (FIG. 18A, FIG. 18B, FIG. 18C). To confirm that EpAb2-6 recognizes the LYD motif in EpCAM, we constructed cDNA sequences encoding the first (aa 27-59; EGF-I domain) and second (aa 66-135; EGF-II/TY domain) EGF-like repeats of EpCAM. PCR-based site-directed mutagenesis was then used to introduce mutations into each domain (FIG. 18D). The reactivity of EpAb2-6 antibody toward these EpCAM mutants was evaluated by immunofluorescence (FIG. 18E), flow cytometry (FIG. 18F), and cellular ELISA (FIG. 18G)."}, "[4]": {"details": "20 mg/kg EpAb2-6 via tail vein twice a week, 5 mg/kg LGK974 oral gavage on alternating days, four weeks"}},
  "note": "“Also recorded” adds a separate entry of the source.",
  "data": [
    {"molecule": "B1", "values": [
      {"measurement": "median / overall survival", "setting": "[1]", "result": "relatively higher median survival"},
      {"measurement": "tumor progression (bioluminescence)", "setting": "[1]; [4]", "result": "much slower tumor progression"},
      {"measurement": "animal survival", "setting": "[2]; [4]", "result": "can prolong animal survival; also recorded: could prolong animal survival"},
      {"measurement": "mice died by the end of the study", "setting": "[2]; n=5 per group", "result": "2 out of 5"},
      {"measurement": "EpCAM domains bound", "setting": "[3]", "result": "binds to the EGF-I and EGF-II domains of EpEX; also recorded: binds to both EGF-like domain I and II of EpCAM"}
    ]}
  ]
}
